Experimental data reported in patent US20160348147A1, “SYSTEMS AND DEVICES FOR PROTEASE DETECTION BASED ON ENGINEERED POLYMERS AND BIOPOLYMERS AND METHODS OF USE” (DUKE UNIVERSITY, priority 2014, published 2016).

Target: ELP-substrate fusion M(GVGVP)60…
Experiment: cell-based or functional assay

Sequence of ELP-substrate fusion M(GVGVP)60… (chain, as listed by the source): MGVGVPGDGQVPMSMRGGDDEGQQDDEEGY

## Human MMP-1 catalytic domain (recombinant, produced in E. coli, 19.9 kDa) (from UniProt P03956 100-269) (enzyme)
  aggregation time (optical density versus time), 50 ng/mL MMP-1, without inhibitor: < 50 min
